Laboratory results taken from US20160185871A1 (UNIVERSITY OF TOKYO, published 2016).

Key:
[1] = target: T1, human TLR9 having Flag-His6 added on the C-terminal side (human, UniProt Q9NR96 26-1032); assay: membrane permeability staining of Ba/F3 cells, flow cytometry
T1 construct: whole, on cells; Expressed in Ba/F3 cells and stained after membrane permeabilisation; not shown: C-terminal Flag-His6 tag
T1 sequence (looked up): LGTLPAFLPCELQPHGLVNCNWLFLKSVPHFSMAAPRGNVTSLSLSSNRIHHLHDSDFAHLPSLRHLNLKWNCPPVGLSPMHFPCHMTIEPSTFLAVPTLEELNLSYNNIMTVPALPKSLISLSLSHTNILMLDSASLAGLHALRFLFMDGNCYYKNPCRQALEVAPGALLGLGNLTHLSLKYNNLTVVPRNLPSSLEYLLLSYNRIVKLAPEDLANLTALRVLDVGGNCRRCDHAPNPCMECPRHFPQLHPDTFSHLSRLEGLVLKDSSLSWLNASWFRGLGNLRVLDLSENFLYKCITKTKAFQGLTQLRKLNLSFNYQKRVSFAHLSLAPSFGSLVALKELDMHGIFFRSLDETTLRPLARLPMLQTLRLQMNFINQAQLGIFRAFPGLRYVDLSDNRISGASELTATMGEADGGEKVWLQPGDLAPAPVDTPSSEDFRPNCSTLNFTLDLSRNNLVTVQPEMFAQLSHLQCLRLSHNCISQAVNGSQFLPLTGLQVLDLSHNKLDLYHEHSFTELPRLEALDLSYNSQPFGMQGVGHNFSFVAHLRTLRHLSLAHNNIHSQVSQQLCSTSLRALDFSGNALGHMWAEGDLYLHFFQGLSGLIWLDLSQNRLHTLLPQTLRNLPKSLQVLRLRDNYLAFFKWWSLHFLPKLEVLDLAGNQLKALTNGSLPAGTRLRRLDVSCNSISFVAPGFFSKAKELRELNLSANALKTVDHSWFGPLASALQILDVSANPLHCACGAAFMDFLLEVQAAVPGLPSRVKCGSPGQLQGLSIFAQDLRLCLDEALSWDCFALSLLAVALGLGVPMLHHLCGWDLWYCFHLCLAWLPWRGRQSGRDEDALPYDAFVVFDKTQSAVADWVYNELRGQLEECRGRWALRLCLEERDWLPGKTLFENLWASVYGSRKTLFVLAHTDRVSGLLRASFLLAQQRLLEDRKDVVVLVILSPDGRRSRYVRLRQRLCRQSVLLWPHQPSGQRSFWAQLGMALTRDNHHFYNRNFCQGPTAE

[2] = target: T2, mouse TLR9 (mouse, UniProt Q9EQU3 26-1032); assay: flow cytometry on Ba/F3_mTLR9 cells, hybridoma selection
T2 construct: Stands for three settings: mouse TLR9 expressed in Ba/F3 cells (Ba/F3_mTLR9), alone or with Unc93B1, and endogenous TLR9 of spleen DC; also called mTLR9; endogenous TLR9
T2 sequence: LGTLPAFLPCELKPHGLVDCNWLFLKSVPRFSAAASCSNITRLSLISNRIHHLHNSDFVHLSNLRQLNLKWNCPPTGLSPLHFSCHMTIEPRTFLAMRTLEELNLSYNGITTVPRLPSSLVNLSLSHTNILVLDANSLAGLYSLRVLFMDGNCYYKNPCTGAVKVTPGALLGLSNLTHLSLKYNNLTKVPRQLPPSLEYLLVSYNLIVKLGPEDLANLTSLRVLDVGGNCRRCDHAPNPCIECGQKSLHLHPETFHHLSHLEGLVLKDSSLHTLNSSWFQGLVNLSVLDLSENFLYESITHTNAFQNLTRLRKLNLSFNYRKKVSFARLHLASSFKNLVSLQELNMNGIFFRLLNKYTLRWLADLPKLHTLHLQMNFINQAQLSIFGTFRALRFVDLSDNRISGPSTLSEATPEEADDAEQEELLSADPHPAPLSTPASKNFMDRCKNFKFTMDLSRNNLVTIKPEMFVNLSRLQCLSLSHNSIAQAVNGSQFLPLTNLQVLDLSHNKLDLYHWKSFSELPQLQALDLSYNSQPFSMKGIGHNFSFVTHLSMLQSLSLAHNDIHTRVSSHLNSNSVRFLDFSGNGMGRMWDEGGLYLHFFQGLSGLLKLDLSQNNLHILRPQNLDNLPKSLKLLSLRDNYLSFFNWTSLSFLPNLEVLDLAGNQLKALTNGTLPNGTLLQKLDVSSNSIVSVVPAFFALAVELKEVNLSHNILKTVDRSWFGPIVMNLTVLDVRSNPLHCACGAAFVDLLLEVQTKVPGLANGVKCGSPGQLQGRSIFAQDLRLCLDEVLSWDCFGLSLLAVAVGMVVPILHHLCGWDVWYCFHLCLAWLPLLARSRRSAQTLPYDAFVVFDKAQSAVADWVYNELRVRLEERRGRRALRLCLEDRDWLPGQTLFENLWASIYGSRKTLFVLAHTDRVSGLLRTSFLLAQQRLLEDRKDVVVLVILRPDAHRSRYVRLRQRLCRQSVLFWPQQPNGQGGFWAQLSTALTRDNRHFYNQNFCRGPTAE
Description: In order to establish a monoclonal antibody (mAb) against mouse TLR9, BALB/c TLR9^{-/-} mice were immunized with Ba/F3 cells(Ba/F3_mTLR9) that expressed mouse TLR9. Four days after final immunization, the spleen cells were fused with the SP2/0 myeloma cells. Hybridomas producing anti-mouse TLR9 mAb were selected by flow cytometry based on the staining of the Ba/F3 cells used for immunization. Three monoclonal antibodies J15A7 (IgG1/κ), C34A1 (IgG2a/κ), and B33A4 (IgG2a/κ) were established.

[3] = target: T3, mouse TLR9 having Flag-His6 added on the C-terminal side (mouse, UniProt Q9EQU3 26-1032); assay: membrane permeability staining of Ba/F3 cells, flow cytometry
T3 construct: Expressed in Ba/F3 cells and stained after membrane permeabilisation; not shown: C-terminal Flag-His6 tag
T3 sequence: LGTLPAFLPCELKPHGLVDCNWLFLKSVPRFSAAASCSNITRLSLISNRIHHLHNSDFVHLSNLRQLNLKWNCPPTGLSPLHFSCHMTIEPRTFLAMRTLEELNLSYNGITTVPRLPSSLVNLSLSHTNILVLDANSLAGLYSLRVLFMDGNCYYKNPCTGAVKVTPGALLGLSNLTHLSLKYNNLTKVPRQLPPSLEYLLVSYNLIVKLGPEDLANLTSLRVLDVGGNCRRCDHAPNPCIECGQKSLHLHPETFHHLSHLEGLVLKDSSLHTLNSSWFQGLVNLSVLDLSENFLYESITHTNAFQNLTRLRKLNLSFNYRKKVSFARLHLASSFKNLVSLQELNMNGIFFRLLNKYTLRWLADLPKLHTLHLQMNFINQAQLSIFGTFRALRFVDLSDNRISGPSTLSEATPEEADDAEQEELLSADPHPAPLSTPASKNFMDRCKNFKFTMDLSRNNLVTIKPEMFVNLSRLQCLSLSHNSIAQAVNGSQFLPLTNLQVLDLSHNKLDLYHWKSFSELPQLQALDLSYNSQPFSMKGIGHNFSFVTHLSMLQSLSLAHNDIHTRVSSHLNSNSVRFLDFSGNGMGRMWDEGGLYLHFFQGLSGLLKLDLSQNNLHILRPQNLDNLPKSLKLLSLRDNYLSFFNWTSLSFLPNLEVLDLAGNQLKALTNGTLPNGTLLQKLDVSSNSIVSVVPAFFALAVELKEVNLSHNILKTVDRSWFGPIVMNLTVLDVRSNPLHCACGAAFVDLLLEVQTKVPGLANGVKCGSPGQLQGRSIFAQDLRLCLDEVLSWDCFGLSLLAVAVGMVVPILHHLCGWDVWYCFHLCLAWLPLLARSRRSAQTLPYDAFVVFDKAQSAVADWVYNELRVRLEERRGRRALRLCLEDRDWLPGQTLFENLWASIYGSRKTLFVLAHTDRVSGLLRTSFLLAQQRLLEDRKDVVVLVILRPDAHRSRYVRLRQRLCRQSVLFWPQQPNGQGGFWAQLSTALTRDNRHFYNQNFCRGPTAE

[4] = target: T4, TLR7N27-312 (mouse, UniProt P58681 27-312); assay: flow cytometry on a cell line expressing the fragment
T4 construct: Expressed in a cell line; also called fragment of TLR7 from position 27 to position 312
T4 sequence: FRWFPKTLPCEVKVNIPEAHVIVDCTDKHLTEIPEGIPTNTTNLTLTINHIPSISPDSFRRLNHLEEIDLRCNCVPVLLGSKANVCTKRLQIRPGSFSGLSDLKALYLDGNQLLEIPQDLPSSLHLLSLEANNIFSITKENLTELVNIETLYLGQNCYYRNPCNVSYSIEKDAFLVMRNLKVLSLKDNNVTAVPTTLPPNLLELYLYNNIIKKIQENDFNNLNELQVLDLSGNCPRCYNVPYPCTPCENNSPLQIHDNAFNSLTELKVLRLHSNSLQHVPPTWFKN

[5] = target: T5, C terminal region TLR7 (TLR7C; from 461-st glutamic acid to 837-th aspartic acid) (mouse, UniProt P58681 461-837); assay: flow cytometry on cells displaying the fragment
T5 construct: not shown: N-terminal HA antigen added by the pDisplay vector; Cell-surface display (membrane anchor) part of the pDisplay vector; not described
T5 sequence: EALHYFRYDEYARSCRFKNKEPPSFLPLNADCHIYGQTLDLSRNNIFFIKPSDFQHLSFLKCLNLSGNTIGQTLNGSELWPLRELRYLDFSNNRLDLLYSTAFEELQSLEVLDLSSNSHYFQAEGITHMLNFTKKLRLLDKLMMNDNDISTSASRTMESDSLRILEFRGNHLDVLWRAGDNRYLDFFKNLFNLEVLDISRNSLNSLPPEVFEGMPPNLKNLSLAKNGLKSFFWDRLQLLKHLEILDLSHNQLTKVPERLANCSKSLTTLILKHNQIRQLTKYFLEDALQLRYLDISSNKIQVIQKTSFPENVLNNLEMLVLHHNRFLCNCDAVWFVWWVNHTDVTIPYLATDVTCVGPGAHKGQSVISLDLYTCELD

B1: B33A4 antibody (antibody, V domains shown)
VH: EVLLQQSGPELVKPGASVKIPCKASGFTFTDYNLDWVKQSHEKSLEWIGDINPNTGGTIYNQNFKGKATLTVDRSSGTAYMELRSLTSEDTAVYFCARYFVSNYGYFDVWGAGTTVTVSS
VL: SIVMTQTPKFLLVSAGDRVTITCKASQSVSYDVAWYQQKPGQSPKLLIYYASNLYTGVPDRFTGSGYGTDFTFTISTVQAEDLAVYFCQQDSSSPYTFGGGTKLEIKR
notes: Mouse monoclonal antibody from a hybridoma, IgG2a/kappa; also called anti-TLR9N
binding result [1]: no binding

B2: C34A1 antibody (antibody, mouse IgG2a, kappa, V domains shown)
VH: EVQLVESGGDLVKPGGSLKLSCAASGFTFSSYAMSWVRQTPDNRLEWVATSSSVGSYAYYPDNVKGRFTISRDNAKNTLYLQMSSLKSEDTAMYYCARRDYDARYWYFDVWGAGTTVTVSS
VL: DIKMTQSPSSMYASLGERVTITCKASQDIKSYLSWYQLKPWKSPKTLIYYATTLADGVPSRFSGSGSGQDYSLTISSLESDDTATYYCLQHGESPYTFGGGTKLEIKR
notes: Mouse monoclonal antibody from a hybridoma, IgG2a/kappa
binding result [2]: binds | binding result [1]: no binding | binding result [3]: binds

B3: A94B10 antibody (antibody, V domains shown)
VH: EVKLVESGGGLVQPGGSLRLSCTTSGFTFSDFYMEWVRQPPGKRLEWIAASRNKRNDHTTEYSASVKGRFIVSRDTSQNILYLQMNALRAEDTAIYYCARDADYYGSSTWYFDVWGAGTTVTVSS
VL: DIVMTQSHKFMSTSVGDRVSITCKASQDVRTAVAWYQQKPGQSPKLLIYWASTRHTGVPDRFTGSGSGTDYTLTISSVQAEDLALYYCQQHYNTPPTFGGGTKLEIKR
notes: Mouse monoclonal antibody from a hybridoma, isotype IgG1; Chains were determined from full-length cDNA (5'-RACE); also called anti-mouse TLR7 antibody A94B10; anti-TLR7 monoclonal antibody
binding result [4]: no binding | binding result [5]: no binding

B4: J15A7 antibody (antibody, mouse IgG1, kappa, V domains shown)
VH: QVQLQQPGAELVMPGASVKMSCKASGYTFTDYWMHWVKQRPGQGLEWIGVIDTSDSYTSYNQKFNRKATLTVDESSSTAYMQLSSLTSEDSAVYYCARDGPYYAMDYWGQGTSVTVSS
VL: QIVLTQSPAIMSASPGEKVTISCSASSGVSYMYWYQQKPGSSPKPWIYRTSNLASGVPARFSGSGSGTSYSLTISSMEAEDAATYYCHQYHSDPRTFGGGTKLEIKR
notes: Mouse monoclonal antibody from a hybridoma, IgG1/kappa; also called anti-TLR9 monoclonal antibody J15A7
binding result [2]: binds | binding result [1]: no binding | binding result [3]: binds
